The record followed here is patent US20220010021A1 (Sanofi, published 2022).

Substitutions are numbered along the chain they refer to. Numbers in names are those of the source.

Experiment [1] concerns the target cell surface receptor composed of FGFR1c and co-receptor beta-Klotho (KLB) on iLite FGF21 Assay Ready Cells (human, UniProt P11362 22-822; Q86Z14 1-1044). Description: cell-based or functional assay.
The next experiment addresses T1, human beta-Klotho (KLB) (human, UniProt Q86Z14 53-997).
T1 construct: the BLI off-rate screen was run with human and with monkey KLB; also called human KLB; ß-Klotho
T1 sequence (looked up): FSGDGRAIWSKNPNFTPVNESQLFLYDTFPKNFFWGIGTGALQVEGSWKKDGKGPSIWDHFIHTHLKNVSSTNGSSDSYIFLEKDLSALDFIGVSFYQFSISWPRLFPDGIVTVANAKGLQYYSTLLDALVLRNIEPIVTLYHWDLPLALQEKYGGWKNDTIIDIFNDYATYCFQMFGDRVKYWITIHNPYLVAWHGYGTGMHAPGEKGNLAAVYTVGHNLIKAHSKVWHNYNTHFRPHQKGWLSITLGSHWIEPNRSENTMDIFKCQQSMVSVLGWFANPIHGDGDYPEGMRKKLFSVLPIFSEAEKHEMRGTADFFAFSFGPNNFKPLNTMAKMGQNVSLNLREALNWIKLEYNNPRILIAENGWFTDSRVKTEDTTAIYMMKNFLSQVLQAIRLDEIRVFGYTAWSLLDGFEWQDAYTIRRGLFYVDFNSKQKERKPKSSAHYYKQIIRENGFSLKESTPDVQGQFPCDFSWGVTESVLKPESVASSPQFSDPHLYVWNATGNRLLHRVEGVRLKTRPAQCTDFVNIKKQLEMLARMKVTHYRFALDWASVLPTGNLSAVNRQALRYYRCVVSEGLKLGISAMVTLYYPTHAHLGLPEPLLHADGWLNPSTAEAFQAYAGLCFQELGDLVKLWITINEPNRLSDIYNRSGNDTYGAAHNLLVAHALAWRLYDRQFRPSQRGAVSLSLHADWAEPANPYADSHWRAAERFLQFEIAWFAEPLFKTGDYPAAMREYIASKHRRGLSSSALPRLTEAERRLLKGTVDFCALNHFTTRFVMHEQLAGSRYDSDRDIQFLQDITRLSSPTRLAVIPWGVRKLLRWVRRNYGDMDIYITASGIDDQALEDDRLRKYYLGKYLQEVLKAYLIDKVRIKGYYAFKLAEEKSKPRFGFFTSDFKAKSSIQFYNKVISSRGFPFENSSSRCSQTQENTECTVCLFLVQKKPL
The experiment in a line: BLI off-rate screening (Octet HTX), antibody from supernatant on anti-hIgG Fc capture sensors, KLB 5 nmol/L as analyte. Background: Biolayer interferometry detects binding as a change in optical thickness at a sensor tip.

Experiment [2] addresses cell-surface receptor complex of human FGFR1c and beta-Klotho (KLB) on iLite FGF21 reporter cells (human, UniProt P11362 22-822; Q86Z14 1-1044). The experiment in a line: cell-based or functional assay.
The target in a further experiment is T2, beta-Klotho (KLB) (Homo sapiens (Human), UniProt Q86Z14 1-996).
T2 construct: also called β-Klotho; not shown: C-terminal His tag of the bought R&D Systems protein
T2 sequence: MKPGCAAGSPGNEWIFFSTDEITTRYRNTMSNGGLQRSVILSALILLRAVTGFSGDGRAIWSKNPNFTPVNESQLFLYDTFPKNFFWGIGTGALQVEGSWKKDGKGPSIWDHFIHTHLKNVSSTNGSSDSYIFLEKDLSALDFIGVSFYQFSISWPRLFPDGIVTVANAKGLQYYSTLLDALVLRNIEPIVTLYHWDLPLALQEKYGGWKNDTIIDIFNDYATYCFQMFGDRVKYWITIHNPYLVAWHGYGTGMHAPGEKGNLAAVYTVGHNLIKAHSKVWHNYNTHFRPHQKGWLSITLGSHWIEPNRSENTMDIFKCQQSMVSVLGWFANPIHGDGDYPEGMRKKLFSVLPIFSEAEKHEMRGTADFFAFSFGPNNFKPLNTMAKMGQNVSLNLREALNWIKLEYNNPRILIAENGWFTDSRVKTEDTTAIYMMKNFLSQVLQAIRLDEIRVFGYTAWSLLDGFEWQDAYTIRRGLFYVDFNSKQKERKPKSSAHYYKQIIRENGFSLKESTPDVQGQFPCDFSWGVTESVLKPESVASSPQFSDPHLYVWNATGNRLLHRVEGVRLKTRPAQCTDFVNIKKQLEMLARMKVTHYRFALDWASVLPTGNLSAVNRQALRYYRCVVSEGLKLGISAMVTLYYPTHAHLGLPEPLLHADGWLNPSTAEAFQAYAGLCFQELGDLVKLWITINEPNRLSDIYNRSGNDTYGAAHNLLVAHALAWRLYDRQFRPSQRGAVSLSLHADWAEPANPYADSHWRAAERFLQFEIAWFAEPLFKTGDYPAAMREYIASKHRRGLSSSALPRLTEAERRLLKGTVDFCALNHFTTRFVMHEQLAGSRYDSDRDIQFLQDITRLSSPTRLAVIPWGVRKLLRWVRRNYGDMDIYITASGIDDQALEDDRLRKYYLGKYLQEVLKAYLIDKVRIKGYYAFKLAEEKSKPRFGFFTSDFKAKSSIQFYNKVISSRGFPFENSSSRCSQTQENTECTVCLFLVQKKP
The experiment in a line: BLI (Octet) off-rate screening, mAb from supernatant on anti-hIgG Fc sensor, 5 nmol/L KLB.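 Further: dissociation followed for 1800 s in D-PBS plus 0.1% BSA, antibody supernatants applied at 25 µg/mL.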

Experiment [3] addresses cell surface receptor composed of the tyrosine kinase receptor FGFR1c and co-receptor beta-Klotho (KLB) (human, UniProt P11362 22-822; Q86Z14 1-1044). The experiment in a line: cell-based or functional assay.
Experiment [4] concerns the target human FGFR1c/KLB receptor complex on primary human adipocytes (human, UniProt P11362 22-822; Q86Z14 1-1044). The experiment in a line: cell-based or functional assay.

Chain of human FGFR1c/KLB receptor complex on primary human adipocytes (P11362 22-822, chain 1 of 2): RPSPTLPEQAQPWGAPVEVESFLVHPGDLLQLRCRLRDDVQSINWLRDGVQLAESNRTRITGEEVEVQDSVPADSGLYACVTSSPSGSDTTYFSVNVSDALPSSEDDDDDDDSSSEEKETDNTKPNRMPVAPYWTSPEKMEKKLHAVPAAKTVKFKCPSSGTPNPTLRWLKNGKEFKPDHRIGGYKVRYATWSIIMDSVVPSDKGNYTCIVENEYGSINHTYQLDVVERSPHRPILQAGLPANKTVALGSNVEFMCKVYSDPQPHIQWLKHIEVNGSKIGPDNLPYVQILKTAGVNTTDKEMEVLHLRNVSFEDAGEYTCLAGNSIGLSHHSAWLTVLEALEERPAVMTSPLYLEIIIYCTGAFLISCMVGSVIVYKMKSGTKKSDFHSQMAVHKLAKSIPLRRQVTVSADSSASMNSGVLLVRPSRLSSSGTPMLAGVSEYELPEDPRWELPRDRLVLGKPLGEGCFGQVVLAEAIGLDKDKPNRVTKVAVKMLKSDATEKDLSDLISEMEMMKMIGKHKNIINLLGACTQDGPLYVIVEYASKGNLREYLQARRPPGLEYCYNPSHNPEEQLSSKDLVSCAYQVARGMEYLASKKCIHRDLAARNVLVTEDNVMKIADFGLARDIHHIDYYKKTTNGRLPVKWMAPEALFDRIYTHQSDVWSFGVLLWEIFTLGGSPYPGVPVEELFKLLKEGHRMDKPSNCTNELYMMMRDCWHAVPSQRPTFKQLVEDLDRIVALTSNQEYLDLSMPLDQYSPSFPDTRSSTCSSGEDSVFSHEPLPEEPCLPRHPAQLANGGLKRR
Chain of human FGFR1c/KLB receptor complex on primary human adipocytes (Q86Z14 whole entry, chain 2 of 2): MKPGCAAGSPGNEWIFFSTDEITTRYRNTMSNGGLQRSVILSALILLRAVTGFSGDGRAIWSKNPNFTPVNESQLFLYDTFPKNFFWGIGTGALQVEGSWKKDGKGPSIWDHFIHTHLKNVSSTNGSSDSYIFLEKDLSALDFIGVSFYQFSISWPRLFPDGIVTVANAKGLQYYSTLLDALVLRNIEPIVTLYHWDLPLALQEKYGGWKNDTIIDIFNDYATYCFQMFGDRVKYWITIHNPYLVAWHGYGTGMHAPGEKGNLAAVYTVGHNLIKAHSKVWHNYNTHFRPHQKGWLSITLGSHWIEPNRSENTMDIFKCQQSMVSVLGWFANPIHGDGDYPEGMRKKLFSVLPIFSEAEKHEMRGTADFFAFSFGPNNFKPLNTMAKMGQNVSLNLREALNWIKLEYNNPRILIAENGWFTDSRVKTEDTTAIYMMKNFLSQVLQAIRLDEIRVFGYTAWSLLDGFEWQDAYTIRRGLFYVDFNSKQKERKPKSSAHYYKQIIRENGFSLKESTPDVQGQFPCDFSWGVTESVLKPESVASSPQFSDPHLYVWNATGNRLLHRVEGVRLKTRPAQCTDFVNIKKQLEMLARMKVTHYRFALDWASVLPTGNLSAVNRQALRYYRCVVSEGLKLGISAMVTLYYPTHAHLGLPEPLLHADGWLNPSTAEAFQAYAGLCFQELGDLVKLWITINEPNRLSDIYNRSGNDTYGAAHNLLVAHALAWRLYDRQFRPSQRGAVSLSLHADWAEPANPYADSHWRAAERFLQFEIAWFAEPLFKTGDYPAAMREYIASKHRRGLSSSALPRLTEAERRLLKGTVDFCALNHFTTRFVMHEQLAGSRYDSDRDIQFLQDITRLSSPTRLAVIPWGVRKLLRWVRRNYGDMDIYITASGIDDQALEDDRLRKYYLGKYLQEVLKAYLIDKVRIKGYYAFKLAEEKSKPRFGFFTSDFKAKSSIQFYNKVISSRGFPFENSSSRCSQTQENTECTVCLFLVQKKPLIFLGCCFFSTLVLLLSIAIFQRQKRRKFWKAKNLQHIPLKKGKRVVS
Chain of cell surface receptor composed of the tyrosine kinase receptor FGFR1c and co-receptor beta-Klotho (KLB) (P11362 22-822, one chain of several): as the sequence (P11362 22-822, chain 1 of 2) above
Chain of cell surface receptor composed of FGFR1c and co-receptor beta-Klotho (KLB) on iLite FGF21 Assay Ready Cells (P11362 22-822, chain 1 of 2): as above
Chain of cell surface receptor composed of FGFR1c and co-receptor beta-Klotho (KLB) on iLite FGF21 Assay Ready Cells (Q86Z14 whole entry, chain 2 of 2): as the sequence (Q86Z14 whole entry, chain 2 of 2) above

B1: 16H7 variant with light chain substitution Q88S (antibody, V domains shown)
VH: not shown
VL: SYVLTQPPSVSVAPGQTARITCGGNNIGSESVHWYQQKPGQAPVLVVYDDSDRPSGIPERFSGSNSGNTATLTISRVEAGDEADYYCSVWDGNSDHVVFGGGTKLTVLG
Take B1: in experiment [1], the “Mean E max” value was found to be 104%.

B2: 16H7 variant with single point mutation V98S in the light chain (antibody, V domains shown)
VH: not shown
VL: B1 VL with S88Q, V98S
notes: Tested from HEK293-F supernatant
B2 gave a koff with human beta-Klotho (KLB) of 3.9e-05 s⁻¹. Moreover, in experiment [2], the “Mean E max (%), Luciferase gene reporter assay” value (“Mean E max (%)” below) was found to be 107% and the “Mean EC50 (nM), Luciferase gene reporter assay” value (from here on “Mean EC50 (nM)”) worked out at 0.094 nM.

B3: 16H7 variant with light chain substitution V98Q (antibody, human IgG4 S228P, lambda, V domains shown)
VH: not shown
VL: B1 VL with S88Q, V98Q
notes: IgG4 backbone was used
Turning to B3, the koff with beta-Klotho (KLB) was 3.7e-05 s⁻¹. For the same molecule, in experiment [3], the “Mean E max, Luciferase gene reporter assay” value was found to be 111% and the “Mean EC50, Luciferase gene reporter assay” value came to 0.121 nM.

B4: 16H7 variant with single point mutation V98G in the light chain (antibody, V domains shown)
VH: not shown
VL: B1 VL with S88Q, V98G
notes: as for B2
In the experiment with human beta-Klotho (KLB), B4 had a koff of 1.1e-05 s⁻¹. Besides, in experiment [2], the “Mean E max (%)” value came out at 105% and the “Mean EC50 (nM)” value was found to be 0.118 nM.

B5: 16H7 variant with light chain substitution V98P (antibody, human IgG4 S228P, lambda, V domains shown)
VH: not shown
VL: B1 VL with S88Q, V98P
notes: IgG4 backbone was used
In the experiment with beta-Klotho (KLB), B5 registered a koff of 7.3e-05 s⁻¹. In experiment [3], the “Mean E max, Luciferase gene reporter assay” value was determined as 89% and the “Mean EC50, Luciferase gene reporter assay” value is 0.131 nM.

B6: 16H7 variant with single point mutation V98T in the light chain (antibody, V domains shown)
VH: not shown
VL: B1 VL with S88Q, V98T
notes: as for B2
In the experiment with human beta-Klotho (KLB), B6 came in with a koff of 3.1e-05 s⁻¹. For the same molecule, in experiment [2], the “Mean E max (%)” value was found to be 99% and the “Mean EC50 (nM)” value was found to be 0.088 nM.

B7: 16H7 variant with single point mutation V98Y in the light chain (antibody, V domains shown)
VH: not shown
VL: B1 VL with S88Q, V98Y
notes: as for B2
In the experiment with human beta-Klotho (KLB), B7 returned a koff of 5.9e-05 s⁻¹. For the same molecule, in experiment [2], the “Mean E max (%)” value was 100% and the “Mean EC50 (nM)” value came to 0.109 nM.

B8: 16H7 variant with single point mutation V98A in the light chain (antibody, V domains shown)
VH: not shown
VL: B1 VL with S88Q, V98A
notes: as for B2
As for B8, in the experiment with human beta-Klotho (KLB), the dissociation rate constant (koff) is 4.6e-05 s⁻¹. For the same molecule, in experiment [2], the “Mean E max (%)” value was determined as 99% and the “Mean EC50 (nM)” value is 0.139 nM.

B9: 16H7 variant with single point mutation V98K in the light chain (antibody, V domains shown)
VH: not shown
VL: B1 VL with S88Q, V98K
notes: as for B2
B9 registered a koff with human beta-Klotho (KLB) of 9e-05 s⁻¹. In addition, in experiment [2], the “Mean E max (%)” value came to 106% and the “Mean EC50 (nM)” value was determined as 0.111 nM.

B10: 16H7 variant with light chain substitution V98I (antibody, human IgG4 S228P, lambda, V domains shown)
VH: not shown
VL: B1 VL with S88Q, V98I
notes: IgG4 backbone was used
B10 registered a koff with beta-Klotho (KLB) of 3.3e-05 s⁻¹. Besides, in experiment [3], the “Mean E max, Luciferase gene reporter assay” value was determined as 116% and the “Mean EC50, Luciferase gene reporter assay” value was determined as 0.105 nM.

B11: 16H7 variant with light chain substitution V98M (antibody, human IgG4 S228P, lambda, V domains shown)
VH: not shown
VL: B1 VL with S88Q, V98M
notes: IgG4 backbone was used
B11 had a koff with beta-Klotho (KLB) of 7.2e-05 s⁻¹. Also, in experiment [3], the “Mean E max, Luciferase gene reporter assay” value amounted to 108% and the “Mean EC50, Luciferase gene reporter assay” value turned out to be 0.114 nM.

B12: 16H7 variant with single point mutation V98Q in the light chain (antibody, V domains shown)
VH: not shown
VL: B1 VL with S88Q, V98Q
notes: as for B2
In the experiment with human beta-Klotho (KLB), B12 showed a koff of 3.7e-05 s⁻¹. Also, in experiment [2], the “Mean E max (%)” value was 111% and the “Mean EC50 (nM)” value amounted to 0.121 nM.

B13: 16H7 variant with single point mutation V98H in the light chain (antibody, V domains shown)
VH: not shown
VL: B1 VL with S88Q, V98H
notes: as for B2
B13 returned a koff in the experiment with human beta-Klotho (KLB) of 1.8e-05 s⁻¹. Also, in experiment [2], the “Mean E max (%)” value stood at 103% and the “Mean EC50 (nM)” value came out at 0.107 nM.

B14: 16H7 variant with light chain substitution V98N (antibody, human IgG4 S228P, lambda, V domains shown)
VH: not shown
VL: B1 VL with S88Q, V98N
notes: IgG4 backbone was used
In the experiment with beta-Klotho (KLB), B14 gave a koff of 2.1e-05 s⁻¹. Further, in experiment [3], the “Mean E max, Luciferase gene reporter assay” value was 112% and the “Mean EC50, Luciferase gene reporter assay” value came to 0.111 nM.

B15: 16H7 variant with single point mutation V98R in the light chain (antibody, V domains shown)
VH: not shown
VL: B1 VL with S88Q, V98R
notes: as for B2
Turning to B15, the koff with human beta-Klotho (KLB) turned out to be 0.00011 s⁻¹. Also, in experiment [2], the “Mean E max (%)” value came to 99% and the “Mean EC50 (nM)” value is 0.099 nM.

B16: 16H7 variant with single point mutation V98W in the light chain (antibody, V domains shown)
VH: not shown
VL: B1 VL with S88Q, V98W
notes: as for B2
In the case of B16, the koff with human beta-Klotho (KLB) came out at 5.6e-05 s⁻¹. In experiment [2], the “Mean E max (%)” value was determined as 99% and the “Mean EC50 (nM)” value came out at 0.099 nM.

B17: 16H7 variant with single point mutation V98L in the light chain (antibody, V domains shown)
VH: not shown
VL: B1 VL with S88Q, V98L
notes: as for B2
Take B17: the koff with human beta-Klotho (KLB) came out at 0.00013 s⁻¹. In addition, in experiment [2], the “Mean E max (%)” value was 105% and the “Mean EC50 (nM)” value stood at 0.121 nM.

B18: human FGF21 (ligand)
chain: GHPIPDSSPLLQFGGQVRQRYLYTDDAQQTEAHLEIREDGTVGGAADQSPESLLQLKALKPGVIQILGVKTSRFLCQRPDGALYGSLHFDPEACSFRELLLEDGYNVYQSEAHGLPLHLPGNKSPHRDPAPRGPARFLPLPGLPPAPPEPPGILAPQPPDVGSSDPLSMVGPSQGRSPSYAS
B18: the “In-Cell Western pERK EC50, primary human adipocytes” value (shortened to “In-Cell Western pERK EC50”) in experiment [4] came out at 0.206 nmol/L.

B19: Ab0331 (antibody, human IgG4 S228P, lambda)
heavy: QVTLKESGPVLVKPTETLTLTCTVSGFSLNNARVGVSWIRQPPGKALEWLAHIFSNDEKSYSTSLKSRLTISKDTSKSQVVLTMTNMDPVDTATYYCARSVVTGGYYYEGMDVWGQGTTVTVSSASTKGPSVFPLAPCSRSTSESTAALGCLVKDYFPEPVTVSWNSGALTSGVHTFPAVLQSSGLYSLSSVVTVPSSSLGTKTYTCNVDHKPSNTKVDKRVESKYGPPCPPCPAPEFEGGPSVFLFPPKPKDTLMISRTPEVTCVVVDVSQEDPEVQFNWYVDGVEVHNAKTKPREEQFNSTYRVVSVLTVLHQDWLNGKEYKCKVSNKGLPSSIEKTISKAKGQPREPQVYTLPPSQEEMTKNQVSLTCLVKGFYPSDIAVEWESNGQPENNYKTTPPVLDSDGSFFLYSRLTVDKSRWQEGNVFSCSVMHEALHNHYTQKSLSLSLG
light: SYVLTQPPSVSVAPGQTARITCGGSNIGSESVHWYQQKPGQAPVLVVYSESDRPSGIPERFSGSNSGNTATLTISRVEAGDEADYYCQVWEGESDHVVFGGGTKLTVLGQPKANPTVTLFPPSSEELQANKATLVCLISDFYPGAVTVAWKADGSPVKAGVETTKPSKQSNNKYAASSYLSLTPEQWKSHRSYSCQVTHEGSTVEKTVAPTECS
On to B19, for which the “In-Cell Western pERK EC50” value in experiment [4] amounted to 0.101 nmol/L.

B20: Ab0428 (antibody, human IgG1, lambda)
heavy: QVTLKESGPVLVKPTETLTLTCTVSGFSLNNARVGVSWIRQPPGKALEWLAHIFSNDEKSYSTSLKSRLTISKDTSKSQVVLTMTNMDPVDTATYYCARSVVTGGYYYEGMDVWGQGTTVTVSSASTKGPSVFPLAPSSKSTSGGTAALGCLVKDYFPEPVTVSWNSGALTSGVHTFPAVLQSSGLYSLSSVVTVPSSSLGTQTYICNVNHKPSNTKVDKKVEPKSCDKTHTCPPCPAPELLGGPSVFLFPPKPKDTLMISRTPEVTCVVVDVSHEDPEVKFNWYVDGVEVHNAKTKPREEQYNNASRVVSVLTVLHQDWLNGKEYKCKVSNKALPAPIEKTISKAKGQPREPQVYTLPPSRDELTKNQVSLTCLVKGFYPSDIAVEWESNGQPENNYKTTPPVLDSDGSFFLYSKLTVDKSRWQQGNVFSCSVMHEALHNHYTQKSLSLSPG
light: B19 light
As to B20, the “In-Cell Western pERK EC50” value in experiment [4] amounted to 0.072 nmol/L.

B21: Ab0335 (antibody, human IgG4 S228P, lambda)
heavy: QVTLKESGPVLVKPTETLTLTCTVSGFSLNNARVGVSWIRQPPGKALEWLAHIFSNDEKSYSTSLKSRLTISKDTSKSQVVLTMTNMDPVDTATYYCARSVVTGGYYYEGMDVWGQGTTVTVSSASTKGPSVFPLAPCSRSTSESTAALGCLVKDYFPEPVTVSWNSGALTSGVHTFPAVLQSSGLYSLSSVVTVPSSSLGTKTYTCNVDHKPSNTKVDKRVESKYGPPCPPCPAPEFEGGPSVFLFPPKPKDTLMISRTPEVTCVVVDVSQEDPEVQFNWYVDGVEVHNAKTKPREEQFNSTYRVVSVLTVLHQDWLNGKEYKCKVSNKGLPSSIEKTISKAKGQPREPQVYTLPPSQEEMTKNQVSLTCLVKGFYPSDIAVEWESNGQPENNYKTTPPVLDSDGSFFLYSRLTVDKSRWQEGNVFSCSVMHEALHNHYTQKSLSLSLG
light: B19 light with E50A
Take B21: the “In-Cell Western pERK EC50” value in experiment [4] was 0.142 nmol/L.

B22: Ab0351 (antibody, human IgG4 S228P, lambda)
heavy: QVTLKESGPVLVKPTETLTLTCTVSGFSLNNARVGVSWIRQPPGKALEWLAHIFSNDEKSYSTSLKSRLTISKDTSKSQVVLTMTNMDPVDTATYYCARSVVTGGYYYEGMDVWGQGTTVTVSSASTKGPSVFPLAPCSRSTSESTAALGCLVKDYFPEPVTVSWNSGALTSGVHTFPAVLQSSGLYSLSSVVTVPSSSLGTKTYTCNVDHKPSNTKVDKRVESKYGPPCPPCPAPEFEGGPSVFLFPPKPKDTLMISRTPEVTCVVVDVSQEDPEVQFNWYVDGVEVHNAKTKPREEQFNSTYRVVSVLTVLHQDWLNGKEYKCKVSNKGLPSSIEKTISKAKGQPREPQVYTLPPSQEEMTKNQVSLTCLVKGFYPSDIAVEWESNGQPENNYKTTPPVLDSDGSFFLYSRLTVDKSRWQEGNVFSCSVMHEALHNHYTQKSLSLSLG
light: B19 light with S49E
B22: the “In-Cell Western pERK EC50” value in experiment [4] was 0.156 nmol/L.

What is called koff is the rate constant with which the complex falls apart.
